These are literature values, as cited in PMC3320014.

Broadly, the Kd is the constant that tells how readily two partners part at equilibrium.

The data set has as its target Protein Z-dependent protease inhibitor (Homo sapiens) (UniProt Q9UK55).
UniProt Q9UK55, sequence (Q9UK55 22-444): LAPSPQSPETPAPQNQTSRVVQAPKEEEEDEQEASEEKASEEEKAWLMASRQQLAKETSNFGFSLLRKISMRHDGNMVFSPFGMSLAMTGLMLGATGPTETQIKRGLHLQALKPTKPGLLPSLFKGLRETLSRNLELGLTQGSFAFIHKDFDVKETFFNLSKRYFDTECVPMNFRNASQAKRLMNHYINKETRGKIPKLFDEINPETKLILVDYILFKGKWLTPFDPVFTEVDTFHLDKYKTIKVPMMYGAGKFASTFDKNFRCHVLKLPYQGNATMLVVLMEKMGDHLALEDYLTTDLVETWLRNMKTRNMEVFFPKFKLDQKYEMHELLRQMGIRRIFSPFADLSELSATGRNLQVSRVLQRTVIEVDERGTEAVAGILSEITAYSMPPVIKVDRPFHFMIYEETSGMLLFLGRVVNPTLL

As for Protein Z (from UniProt P22891), the Kd is 7 nM.
